In IntAct's records for PubMed 25910212:

B1: Emerin (Homo sapiens), P50402 (parent)
chain: MDNYADLSDTELTTLLRRYNIPHGPVVGSTRRLYEKKIFEYETQRRRLSPPSSSAASSYSFSDLNSTRGDADMYDLPKKEDALLYQSKGYNDDYYEESYFTTRTYGEPESAGPSRAVRQSVTSFPDADAFHHQVHDDDLLSSSEEECKDRERPMYGRDSAYQSITHYRPVSASRSSLDLSYYPTSSSTSFMSSSSSSSSWLTRRAIRPENRAPGAGLGQDRQVPLWGQLLLFLVFVIVLFFIYHFMQAEEGNPF
partner: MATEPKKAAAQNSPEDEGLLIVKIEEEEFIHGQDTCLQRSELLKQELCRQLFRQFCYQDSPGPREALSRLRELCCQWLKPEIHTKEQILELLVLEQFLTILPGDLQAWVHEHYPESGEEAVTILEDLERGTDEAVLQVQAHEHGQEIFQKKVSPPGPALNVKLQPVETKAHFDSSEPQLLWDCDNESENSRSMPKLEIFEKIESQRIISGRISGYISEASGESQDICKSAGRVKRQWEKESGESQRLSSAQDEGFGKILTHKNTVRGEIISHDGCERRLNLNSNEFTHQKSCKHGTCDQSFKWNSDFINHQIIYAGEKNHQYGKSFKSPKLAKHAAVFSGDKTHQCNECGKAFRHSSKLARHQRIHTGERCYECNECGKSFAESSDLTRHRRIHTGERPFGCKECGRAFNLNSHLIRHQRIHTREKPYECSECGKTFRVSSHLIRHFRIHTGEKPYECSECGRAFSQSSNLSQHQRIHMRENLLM
B2: Carbonic anhydrase-related protein (Homo sapiens), P35219 (parent)
chain: MADLSFIEDTVAFPEKEEDEEEEEEGVEWGYEEGVEWGLVFPDANGEYQSPINLNSREARYDPSLLDVRLSPNYVVCRDCEVTNDGHTIQVILKSKSVLSGGPLPQGHEFELYEVRFHWGRENQRGSEHTVNFKAFPMELHLIHWNSTLFGSIDEAVGKPHGIAIIALFVQIGKEHVGLKAVTEILQDIQYKGKSKTIPCFNPNTLLPDPLLRDYWVYEGSLTIPPCSEGVTWILFRYPLTISQLQIEEFRRLRTHVKGAELVEGCDGILGDNFRPTQPLSDRVIRAAFQ
B3: Emerin (Homo sapiens), P50402 (parent)
chain: B1 chain
partner: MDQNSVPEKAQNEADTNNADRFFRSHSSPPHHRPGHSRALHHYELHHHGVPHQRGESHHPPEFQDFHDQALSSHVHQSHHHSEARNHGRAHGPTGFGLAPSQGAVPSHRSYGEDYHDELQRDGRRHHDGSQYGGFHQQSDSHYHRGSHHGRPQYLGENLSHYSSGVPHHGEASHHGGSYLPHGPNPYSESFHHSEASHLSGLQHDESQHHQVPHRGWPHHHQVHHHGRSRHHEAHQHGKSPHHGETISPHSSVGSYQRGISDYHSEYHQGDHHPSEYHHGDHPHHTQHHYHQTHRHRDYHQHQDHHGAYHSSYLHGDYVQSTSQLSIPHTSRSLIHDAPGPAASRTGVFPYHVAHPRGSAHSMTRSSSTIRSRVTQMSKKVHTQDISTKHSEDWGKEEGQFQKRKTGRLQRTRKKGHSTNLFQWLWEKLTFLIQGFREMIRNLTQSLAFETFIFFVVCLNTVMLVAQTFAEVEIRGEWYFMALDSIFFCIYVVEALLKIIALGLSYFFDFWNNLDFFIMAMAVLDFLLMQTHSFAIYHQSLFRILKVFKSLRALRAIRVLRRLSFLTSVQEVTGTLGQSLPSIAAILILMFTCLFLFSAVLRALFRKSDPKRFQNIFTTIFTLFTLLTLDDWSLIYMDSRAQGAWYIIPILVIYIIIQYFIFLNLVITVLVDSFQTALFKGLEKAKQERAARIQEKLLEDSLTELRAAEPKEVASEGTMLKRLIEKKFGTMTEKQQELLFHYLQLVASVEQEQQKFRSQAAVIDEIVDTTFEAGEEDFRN
B4: ATP synthase mitochondrial F1 complex assembly factor 2 (Homo sapiens), Q8N5M1 (parent)
chain: MWRSCLRLRDGGRRLLNRPAGGPSASMSPGPTIPSPARAYAPPTERKRFYQNVSITQGEGGFEINLDHRKLKTPQAKLFTVPSEALAIAVATEWDSQQDTIKYYTMHLTTLCNTSLDNPTQRNKDQLIRAAVKFLDTDTICYRVEEPETLVELQRNEWDPIIEWAEKRYGVEISSSTSIMGPSIPAKTREVLVSHLASYNTWALQGIEFVAAQLKSMVLTLGLIDLRLTVEQAVLLSRLEEEYQIQKWGNIEWAHDYELQELRARTAAGTLFIHLCSESTTVKHKLLKE
partner: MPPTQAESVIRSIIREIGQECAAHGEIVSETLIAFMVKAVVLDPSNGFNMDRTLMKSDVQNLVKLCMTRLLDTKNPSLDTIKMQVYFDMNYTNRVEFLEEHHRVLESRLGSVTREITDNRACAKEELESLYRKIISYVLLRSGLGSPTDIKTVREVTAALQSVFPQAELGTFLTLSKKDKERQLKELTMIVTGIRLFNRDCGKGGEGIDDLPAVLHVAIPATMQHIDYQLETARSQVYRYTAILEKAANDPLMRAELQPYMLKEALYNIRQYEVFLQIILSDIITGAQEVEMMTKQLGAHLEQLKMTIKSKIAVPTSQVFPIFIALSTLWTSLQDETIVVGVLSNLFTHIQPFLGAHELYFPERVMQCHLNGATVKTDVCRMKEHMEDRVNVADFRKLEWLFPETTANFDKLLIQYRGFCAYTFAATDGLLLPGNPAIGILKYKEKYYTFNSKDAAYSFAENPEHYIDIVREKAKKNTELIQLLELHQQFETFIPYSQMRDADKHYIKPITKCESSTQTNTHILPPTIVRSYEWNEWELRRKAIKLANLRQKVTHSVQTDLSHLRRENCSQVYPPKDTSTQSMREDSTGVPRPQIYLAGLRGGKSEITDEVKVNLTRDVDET

Variants of: B1
Settings: with zn165_human ZNF165, P49910

Variant | effect of a mutation on the interaction
S54F | with no effect

Variants of: B2
Settings: with int7_human INTS7, Q9NVH2
Chain of int7_human INTS7, Q9NVH2 (Q9NVH2 whole entry): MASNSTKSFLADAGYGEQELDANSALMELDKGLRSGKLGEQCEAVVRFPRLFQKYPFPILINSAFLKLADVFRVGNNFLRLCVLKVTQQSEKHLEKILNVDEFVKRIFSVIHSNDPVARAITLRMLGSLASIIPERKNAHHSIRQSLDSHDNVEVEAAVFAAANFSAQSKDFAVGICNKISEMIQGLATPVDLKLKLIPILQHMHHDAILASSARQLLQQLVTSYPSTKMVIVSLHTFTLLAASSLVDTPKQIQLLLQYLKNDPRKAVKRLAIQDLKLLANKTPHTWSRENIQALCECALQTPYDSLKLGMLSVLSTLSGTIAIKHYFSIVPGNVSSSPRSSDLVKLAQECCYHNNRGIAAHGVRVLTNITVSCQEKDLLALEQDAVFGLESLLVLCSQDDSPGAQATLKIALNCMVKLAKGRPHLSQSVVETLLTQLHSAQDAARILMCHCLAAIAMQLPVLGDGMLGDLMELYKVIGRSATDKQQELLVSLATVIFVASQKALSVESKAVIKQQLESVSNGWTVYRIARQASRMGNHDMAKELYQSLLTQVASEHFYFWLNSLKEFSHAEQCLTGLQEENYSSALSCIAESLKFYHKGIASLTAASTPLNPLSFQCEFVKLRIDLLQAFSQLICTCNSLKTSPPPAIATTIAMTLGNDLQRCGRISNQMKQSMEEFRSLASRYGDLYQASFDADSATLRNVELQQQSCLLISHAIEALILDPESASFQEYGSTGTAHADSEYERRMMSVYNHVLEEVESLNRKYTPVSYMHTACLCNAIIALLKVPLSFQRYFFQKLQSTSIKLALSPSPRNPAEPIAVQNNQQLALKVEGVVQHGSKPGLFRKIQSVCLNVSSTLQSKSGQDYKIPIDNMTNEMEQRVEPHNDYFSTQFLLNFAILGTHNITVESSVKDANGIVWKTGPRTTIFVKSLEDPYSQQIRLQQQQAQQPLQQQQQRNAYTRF

Variant | effect of a mutation on the interaction
S100P | disrupting interaction strength

Variants of: B2
Settings: with crx_human CRX

Variant | effect of a mutation on the interaction
S100P | disrupting interaction strength

Variants of: B3
Settings: with ctsr1_human CATSPER1, Q8NEC5

Variant | effect of a mutation on the interaction
S54F | with no effect
D72V | with no effect
P183T | with no effect
P183H | with no effect

Variants of: B4
Settings: with cf206_human CFAP206, Q8IYR0

Variant | effect of a mutation on the interaction
W94R | disrupting interaction strength
